Key:
[1] = target: T1, SND1 SN1/2 domains (16–339) (human, UniProt Q7KZF4 16-339); assay: crystal structure
T1 sequence (looked up): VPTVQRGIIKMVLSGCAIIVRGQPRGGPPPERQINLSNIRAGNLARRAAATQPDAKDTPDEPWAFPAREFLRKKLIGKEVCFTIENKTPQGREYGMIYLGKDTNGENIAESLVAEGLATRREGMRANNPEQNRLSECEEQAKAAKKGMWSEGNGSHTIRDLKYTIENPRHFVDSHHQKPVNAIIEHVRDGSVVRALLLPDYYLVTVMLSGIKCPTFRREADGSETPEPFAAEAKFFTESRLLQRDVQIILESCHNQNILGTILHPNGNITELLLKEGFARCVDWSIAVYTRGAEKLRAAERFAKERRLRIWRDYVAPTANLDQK

[2] = target: T1, SND1 SN1/2 domains (16–339); assay: ITC
SND1 (16–339) R324E = target: T2, SND1 (16–339) R324E (human, UniProt Q7KZF4 16-339, R324E); assay: pull-down
T2 sequence (looked up): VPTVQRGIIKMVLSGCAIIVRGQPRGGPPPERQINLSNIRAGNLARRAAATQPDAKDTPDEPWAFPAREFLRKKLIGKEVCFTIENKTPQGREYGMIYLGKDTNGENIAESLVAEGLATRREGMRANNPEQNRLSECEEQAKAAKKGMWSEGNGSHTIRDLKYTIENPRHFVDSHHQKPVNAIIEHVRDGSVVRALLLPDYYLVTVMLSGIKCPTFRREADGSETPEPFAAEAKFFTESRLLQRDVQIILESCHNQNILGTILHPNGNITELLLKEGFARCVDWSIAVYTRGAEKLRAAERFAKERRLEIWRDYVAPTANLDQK

SND1 (16–339) R324A = target: T3, SND1 (16–339) R324A (human, UniProt Q7KZF4 16-339, R324A); assay: pull-down
T3 sequence (looked up): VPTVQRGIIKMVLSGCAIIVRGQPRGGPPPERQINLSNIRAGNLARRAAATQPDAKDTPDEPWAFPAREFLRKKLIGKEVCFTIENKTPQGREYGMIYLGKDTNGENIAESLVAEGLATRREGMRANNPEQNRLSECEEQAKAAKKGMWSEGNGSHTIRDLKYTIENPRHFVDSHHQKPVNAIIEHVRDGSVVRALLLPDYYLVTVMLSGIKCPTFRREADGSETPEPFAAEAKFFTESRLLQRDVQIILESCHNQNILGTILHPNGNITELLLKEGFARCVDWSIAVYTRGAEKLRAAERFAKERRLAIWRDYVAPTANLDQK

SND1 (16–339) R316E = target: T4, SND1 (16–339) R316E (human, UniProt Q7KZF4 16-339, R316E); assay: pull-down
T4 sequence (looked up): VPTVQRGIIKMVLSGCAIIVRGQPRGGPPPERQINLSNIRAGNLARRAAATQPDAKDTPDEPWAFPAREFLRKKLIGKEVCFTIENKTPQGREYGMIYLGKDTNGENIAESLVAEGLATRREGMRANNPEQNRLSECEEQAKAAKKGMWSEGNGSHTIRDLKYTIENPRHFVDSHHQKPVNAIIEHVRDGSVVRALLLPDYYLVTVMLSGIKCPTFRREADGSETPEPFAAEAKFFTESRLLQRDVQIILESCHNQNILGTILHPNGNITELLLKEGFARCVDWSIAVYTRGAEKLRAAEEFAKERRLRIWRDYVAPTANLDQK

[3] = target: T1, SND1 SN1/2 domains (16–339); assay: pull-down

B1: MTDH (386–407) (peptide, UniProt Q86UE4 386-407, looked up)
peptide: SSADPNSDWNAPAEEWGNWVDE
- binding result [1]: binds

B2: GST-tagged MTDH (364–582) (domain or fragment, human, UniProt Q86UE4 364-582, looked up)
chain: YQWDVSRNQPYIDDEWSGLNGLSSADPNSDWNAPAEEWGNWVDEERASLLKSQEPIPDDQKVSDDDKEKGEGALPTGKSKKKKKKKKKQGEDNSTAQDTEELEKEIREDLPVNTSKTRPKQEKAFSLKTISTSDPAEVLVKNSQPIKTLPPATSTEPSVILSKSDSDKSSSQVPPILQETDKSKSNTKQNSVPPSQTKSETSWESPKQIKKKKKARRET
- Kd [2]: ~600 nM
- binding result (SND1 (16–339) R324E): binds
- binding result (SND1 (16–339) R324A): binds
- binding result (SND1 (16–339) R316E): binds

B3: GST-tagged MTDH (364–582) E400A (domain or fragment, human, UniProt Q86UE4 364-582, looked up)
chain: YQWDVSRNQPYIDDEWSGLNGLSSADPNSDWNAPAEAWGNWVDEERASLLKSQEPIPDDQKVSDDDKEKGEGALPTGKSKKKKKKKKKQGEDNSTAQDTEELEKEIREDLPVNTSKTRPKQEKAFSLKTISTSDPAEVLVKNSQPIKTLPPATSTEPSVILSKSDSDKSSSQVPPILQETDKSKSNTKQNSVPPSQTKSETSWESPKQIKKKKKARRET
- binding result [3]: binds

B4: GST-tagged MTDH (364–582) D389R (domain or fragment, human, UniProt Q86UE4 364-582, looked up)
chain: YQWDVSRNQPYIDDEWSGLNGLSSARPNSDWNAPAEEWGNWVDEERASLLKSQEPIPDDQKVSDDDKEKGEGALPTGKSKKKKKKKKKQGEDNSTAQDTEELEKEIREDLPVNTSKTRPKQEKAFSLKTISTSDPAEVLVKNSQPIKTLPPATSTEPSVILSKSDSDKSSSQVPPILQETDKSKSNTKQNSVPPSQTKSETSWESPKQIKKKKKARRET
- binding result [3]: binds

B5: GST-tagged MTDH (364–582) E400R (domain or fragment, human, UniProt Q86UE4 364-582, looked up)
chain: YQWDVSRNQPYIDDEWSGLNGLSSADPNSDWNAPAERWGNWVDEERASLLKSQEPIPDDQKVSDDDKEKGEGALPTGKSKKKKKKKKKQGEDNSTAQDTEELEKEIREDLPVNTSKTRPKQEKAFSLKTISTSDPAEVLVKNSQPIKTLPPATSTEPSVILSKSDSDKSSSQVPPILQETDKSKSNTKQNSVPPSQTKSETSWESPKQIKKKKKARRET
- binding result [3]: binds

B6: GST-tagged MTDH (364–582) N395A (domain or fragment, human, UniProt Q86UE4 364-582, looked up)
chain: YQWDVSRNQPYIDDEWSGLNGLSSADPNSDWAAPAEEWGNWVDEERASLLKSQEPIPDDQKVSDDDKEKGEGALPTGKSKKKKKKKKKQGEDNSTAQDTEELEKEIREDLPVNTSKTRPKQEKAFSLKTISTSDPAEVLVKNSQPIKTLPPATSTEPSVILSKSDSDKSSSQVPPILQETDKSKSNTKQNSVPPSQTKSETSWESPKQIKKKKKARRET
- binding result [3]: binds

B7: GST-tagged MTDH (364–582) N403A (domain or fragment, human, UniProt Q86UE4 364-582, looked up)
chain: YQWDVSRNQPYIDDEWSGLNGLSSADPNSDWNAPAEEWGAWVDEERASLLKSQEPIPDDQKVSDDDKEKGEGALPTGKSKKKKKKKKKQGEDNSTAQDTEELEKEIREDLPVNTSKTRPKQEKAFSLKTISTSDPAEVLVKNSQPIKTLPPATSTEPSVILSKSDSDKSSSQVPPILQETDKSKSNTKQNSVPPSQTKSETSWESPKQIKKKKKARRET
- binding result [3]: binds
